Experimental data published in the nanobody polyreactivity screen of Harvey et al. (2022).

Test: yeast display, Sf9 membrane polyspecificity reagent, FACS + sequencing; frameworks hold sequencing errors
Procedure, shortened: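 Polyreactivity labels are assigned by the sorting gate from which each nanobody was recovered. The gates were low and high (top ~1%), set on anti-HA fluorescence for expression and streptavidin fluorescence for reagent binding. Before sorting, galactose-induced (36–48 hours) yeast display cells were stained for 1 hour at 4 °C with 10% biotinylated, detergent-solubilized Sf9 membrane reagent.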

| Sequence | polyreactivity (PSR sort gate) |
| --- | --- |
| QVQLVESGGGLLQAGGSLRLSCAASGSTFPPYAMGWYRQAPGKERELVAAIDWSDGTTYYADSVKGRFTISRDNAKNTVYLQMNSLKPEDTAVYYCAASLSQSEYDYWGQGTQVTVSS | low polyreactivity |
| QVQLVESGGGLVQAGGSLRLSCAASGRIGKYAMGWYRQAPGKERELVATISSTGTTNYADSVKGRFTISRDNAKNTVYLQMNSLKPEDTAVYYCAADKPSYRTLSWGGYWGQGTQVTVSS | high polyreactivity |
| QVQLVESGGGIVQAGGSLRLSCAASGNIFFWYDMGWYRQAPGKERELVATITSSGGSTYYADSVKGRFTISRDNAKNTVYLQMNSLKPEDTAVYYCNALPYYRDDYWGQGTQVTVSS | low polyreactivity |
| QVQLVESGGGLVQAGGSLRLSCAASGRTFRTYTMGWYRQAPGKERELVAAISRGGSTNYADSVKGRFTISRDNAKNTVYLQMNSLKPEYTAVYYCNAKASFWSPYDDWGQGTQVTVSS | high polyreactivity |
| QVHLVESGGGLVMAVGSLRLSCAASGFTFVGYAMGWYRQAPGKERELVATITRVGSTNYADSVKGRFTISRDNAKNTVYLQMNSLKPEDTAVYYCNTRRVYGHGKSPYDSWGQGTQVTVSS | low polyreactivity |
| QVQLVESGGGLVQAGGSLRLSCAASGRISESNDMGWYRPAPGKERELVAAISSSGGSTYYADSVKGRFTISRDNAKNTVYLQMNSLKPEDTAVDYCNAVYYRTVLKIGVYEYDYWGQGTQVTVSS | low polyreactivity |
| QVQLVESGGGLVQAGGSLRLSCAASGRTFYNYAMGWYRQAPGKERELVASIRKNGGSTYYADSVKGRFTISRDNAKNTVYLQMNSLKPEDTAVYYCDARYWGISRIFPSKYDYWGQGTQVTVSS | high polyreactivity |
| QVQLVESGGGLVQAGGSLRLSCAASGSIFSAYSMGWYRQAPGKERELVAAISKSGSSTYYADSVKGRFTISRDNANNTVYFQMNSLKPEDTAVYYCAAKRAGPYGITKGMDYWGQGTQVSVSS | high polyreactivity |
| QVQLVESGGGLVQAGGSLRLSCAASGRIFLYNAMGWYRQAPGKERELVAVISSNGGRTYYADSVKGRFTISRDNAKNTVYLQMNSLKPEDTAVYYCAAVQHYVTHMDYWGQGTQVTVSS | low polyreactivity |
| QVQLVESGGGLVQAGGSLRLSCAASGSTFELYAMGWYRQAPGKERDFVAAITYDSTYYADSVKGRFTISRDNAKNTVYLQMNSLKPEDTAVYYCAAAYWHYYYGWDMYYWGQGTQVTVST | high polyreactivity |
| QVQLVESGGGLVQAGGRLRLSCADSGRTYGSNAMGWYRQAPGKERELVAAISGGDTTNYADSVKGRFTISRDNAKNTVYLQMNSLKPEDTAVYYCATDLRPAYDYWGEGTQVTVSS | low polyreactivity |
| QVQLVESGGGLVQAGGSLRLSCAASGGILVFYALGWYRQSPGKERELVAAINVSGGSTYYADSVKGRFTISRDNAKNTVYLQMNSLKPEDTAVYYCAALGPYLDYGVQYGYWGQGTQVTVSS | low polyreactivity |
| QVQLVESGGGLVQAGGSLRLSCAASGSIFNWYAMGWYIQAPGKERELVAAISSSGSTNYADSVKGRFTISRDNAKNTVYLQMNSLKPEDTEVYYCNADEYYLNNYNYGYWGQGTQVTVSS | low polyreactivity |
| QVQLVESGGGLVQAGGSLRLSCAASGSTFTPYAMGWYRQAPGKERELVAAITWRGGSTYYADSVKGRFTISRDNAKNTVYLQMNSLKPEDTAVYYCAAEDYLYFFYAYGYWGQGTQVTVSS | high polyreactivity |
| QVQLVESGGGLVQAGGSLRLSCAASGIIFRRYAMGWYRQEPGKARELVAAITSGGDTNYADSVKGRFTLSRDNAKNTVYLQMNSLKPEDTAVYYCNAGLRGVRRYGFDYWGQGTQVTVSS | high polyreactivity |
| QVHLVESGGGLVQAGGILRLSCAASGFTFIHYGMGWYRQAPGKERELVAAISSRGGRTYYADSVKGRFTISRDNAKNTVYLQMNSLKPEDTAVYYCNRDYAVISYGEYDSWGQGTEVTVSS | high polyreactivity |
| QVQLVESGGGLVQAGGSLRLSCAASGSIFEGNSMGWYRQAPGKERELVAAISRRGGRTYYADSVKGRFTISRDNAKKTVFLQMNSLKPEDTAVYYCNALYFRVGRYQTYSDKFDYWGQGTQVTVSS | high polyreactivity |
| QVQLVESGGGLFQAGGSLRLSCAASGSIFGKYTMGWYRQAPGKERELVAGITYRAGSTYYADSVKGRFTISRDNAKNTVYLQMNSLKPEDTAVYYCAARFYFRWYYYGSYANYWGQGTQVTVSS | high polyreactivity |
| QVQLVESGGGLVQAGGSLRLSCAASGRIFNRNVMGWYRQAPGKERELVAAISYGTGSTYYADSVKGRFTISRDNAKNTVYLQMNSLKPEDTAVYYCATRYRVRDDGEYDYWGHGTQVTVSS | high polyreactivity |
| QVKLVESGGGLVQAGGSLRLSCAASGFTFGRYAMGWYRQAPGKERELVAAITRRGGSTYYADSVKGRFTISRDNAKNTVYLQMNSLKPEDTAVYYCNKVKQTRTDHDYWGQGTQVTVSS | high polyreactivity |
| QVQLVESGGGLVQAGGSLRLSCAASGSIFVDYAMGWYRQAPGKERELVAAISSGGSTNYADSVKGRFTISRDNAKNTVYLQMNSLKPEDTAVYYCAADGSYGYDYWGQGTQVTVSS | low polyreactivity |
